For experiment [1], the target named is EDTA monooxygenase (EmoA) from Chelativorans sp. BNC1 (Chelativorans sp. BNC1). Put plainly: SEC-MALS. (In gel filtration, larger molecules generally elute earlier.)
The target of the next experiment is EmoA (EDTA-degrading bacterium BNC1, UniProt Q9F9T3). Kind of experiment: ITC. It is filed as binding.

pKd: −log10 of the molar value.

A word on the stoichiometry N: it is a count of units in the complex or per binding partner. The term pKd denotes the negative decadic logarithm of the Kd, by convention in mol/L. Read a high pKd as a small Kd.

In turn, “EDTA monooxygenase (EmoA) from Chelativorans sp. BNC1 (enzyme)” gave a stoichiometry N in experiment [1] of 2.

In the case of `Cc1cc2nc3c(=O)[nH]c(=O)nc-3n(C[C@H](O)[C@H](O)[C@H](O)COP(=O)(O)O)c2cc1C` [FMN], the pKd at EmoA was 6.48.
